From article PMC4067145 (Biochemistry, 2014)

Columns and labels:
[1] = target: T1, full-length human U1A protein (human, UniProt P09012 1-282); experiment: ITC
[2] = target: T1, full-length human U1A protein; experiment: ITC; remark: listed apart in the source
[3] = target: T2, full-length human U2B″ protein (human, UniProt P08579 1-225); experiment: ITC
[4] = target: T2, full-length human U2B″ protein; experiment: ITC; remark: listed apart in the source
[5] = target: T2, full-length human U2B″ protein; experiment: other fluorescence titration
[6] = target: T1, full-length human U1A protein; experiment: other fluorescence titration
[7] = target: T2, full-length human U2B″ protein; experiment: other fluorescence titration; remark: listed apart in the source

T2 sequence (P08579 whole entry): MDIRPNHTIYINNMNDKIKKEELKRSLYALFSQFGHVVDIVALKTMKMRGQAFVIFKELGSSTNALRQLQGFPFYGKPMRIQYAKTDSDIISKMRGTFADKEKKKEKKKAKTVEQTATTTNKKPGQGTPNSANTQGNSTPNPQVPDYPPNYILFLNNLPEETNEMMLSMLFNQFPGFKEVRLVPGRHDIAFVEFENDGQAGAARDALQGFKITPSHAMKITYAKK

- Kd [1]: 1000 nM
- Kd [2]: 830 nM
- Kd [3]: 5.9 nM
- Kd [4]: 6 nM
- Kd [5]: 5.1 nM
- Kd [6]: 1400 nM
- Kd [7]: 4.4 nM
B1: human U2A′ protein, truncated form that included the first 180 amino acids (LRR domain) (domain or fragment)
chain: MVKLTAELIEQAAQYTNAVRDRELDLRGYKIPVIENLGATLDQFDAIDFSDNEIRKLDGFPLLRRLKTLLVNNNRICRIGEGLDQALPCLTELILTNNSLVELGDLDPLASLKSLTYLSILRNPVTNKKHYRLYVIYKVPQVRVLDFQKVKLKERQEAEKMFKGKRGAQLAKDIARRSKT
